Patent US12258605B2, “Alkane oxidation by modified hydroxylases” (The California Institute of Technology, priority 2005, dated 2025)

Experiments:
Format in all cases: biochemical
[1] = Chloromethane dehalogenation (Purpald detection of formaldehyde)
Source text: The dehalogenation reaction is based on the hydroxylation of the carbon atom carrying the halogen by a spontaneous (base catalyzed) alpha-elimination reaction which leads to the formation of an aldehyde or ketone depending on the starting haloalkane. The expected reaction mechanism for the dehalogenation of a general alpha-haloalkane is described by the scheme:
To test the feasibility of this approach, chloromethane was chosen as substrate for the dehalogenation reaction. Compared to other haloalkanes, chloromethane (CM) has the advantage to be moderately soluble in water (0.5 g/100 ml) and to lead to formaldehyde as end product of the hydroxylation/alpha-elimination reaction. Formaldehyde can be then readily detected by colorimetric reaction with Purpald as described previously. To test the reaction, two BM-3 mutants from later rounds of random mutagenesis, 35-E1141 and 20-D3, were incubated in the presence of CM and a cofactor regeneration system based on NADP^+, glucose-6-phosphate and glucose-6-phosphate dehydrogenase. Reactions with wild-type P450 BM-3 and without enzyme were included as controls.
The reaction was repeated in the presence of additional BM-3 mutants, including 1-8H, 1-12G2 and the wild-type P450 BM-3 in which A328 was substituted with valine (BM-3-A328V) (FIG. 27B). […] Wild-type BM-3 was substituted with other amino acid residues at position […].
The activity of BM-3-A328V on CM and other substrates such as HME, DME, and propane was further investigated by measuring product formation rate, cofactor consumption and coupling efficiency (Table 14). This mutant was also found to be capable to hydroxylate ethane to ethanol, although only for a total of about 5-10 turnovers. In Table 14 “consumption” rates are expressed as nmol NADPH/nmol enzyme/min and “product formation” rates are expressed as nmol product/nmol enzyme/min.

[2] = Reactions on alkanes, total turnovers (Table 18): heptane; conditions: heptane (7 C atoms); for % rel. act.: TTN normalized to the highest value of the variant's series; for TTN: total turnovers, standardized reaction conditions
Procedure: (§1) Reactions on alkanes. Reactions with alkanes from pentane to decane were carried out at 3 mL-scale using 100 mM KPi pH 8.0 buffer containing 2% ethanol (to allow alkane solubilization) and purified protein. 2.5 mL KPi buffer were added with 60 μL of 90 mM alkane solution in ethanol (final conc.=1.8 mM), 150 μL enzyme solution at 1 μM (final conc.=50 nM), and 300 μL NADPH regeneration solution (100 units/mL isocitrate dehydrogenase, 70 mg/mL isocitrate, 1.5 mg/ml NADP^+). Vials were sealed and stirred for 24 hours at 4° C. 1 mL-aliquot of the reaction was removed, added with 10 μl internal standard (25 mM 1-bromohexane in ethanol), and extracted with 200 μl chloroform (30 sec vortexing, 1 min centrifugation at 10000 g). The organic phase was removed and analyzed by gas chromatography. Reactions with ethane, propane, and butane were carried out as described for longer alkanes with the only difference that alkane-saturated KPi buffer was used. Propane reactions with variants from HL5 and L9 libraries were performed on 1 mL-scale reaction using 20 nM enzyme to reduce oxygen limitation. Propane and butane reactions were analyzed by direct injection of reaction solution on the GC using 1-pentanol as internal standard. Ethane reaction products were functionalized (see below) and analyzed by GC using 1-butanol as internal standard. All measurements were performed in triplicate.
(§2) Products from alkane reactions were identified and quantified by gas chromatography using authentic standards and calibration curves with internal standards. For the reactions with alkanes from pentane to decane, GC analyses were carried out using a Shimadzu GC-17A gas chromatograph, Agilent HP5 column (30 m×0.32 mm×0.1 μm film), 1 μL injection, FID detector, and the following separation program: 250° C. inlet, 250° C. detector, 50° C. oven for 3 min, 5° C./min gradient to 100° C., 25° C./min gradient to 230° C., and 230° C. for 3 min. For butane and propane (TTN) reactions, GC analyses were carried out using a Hewlett-Packard 5890 Series II Plus gas chromatograph, Supelco SPB-1 column (60 m×0.52 mm×0.5 μm film), 0.5 μL injection, FID detector, and the following separation program: 250° C. inlet, 275° C. detector, 80° C. oven for 2 min, 10° C./min gradient to 110° C., 25° C./min gradient to 275° C., and 275° C. for 2.5 min. For ethane and propane (rate) reactions, analysis of reaction mixtures was carried out by derivatization to alkyl nitrites followed by GC-ECD analysis. For laurate, reaction product analysis was carried out by derivatization with N-methyl-N-trimethylsilylheptafluorobutyramide followed by extraction with hexane. Organic solutions were analyzed by FID-GC.
(§3) TTNs for each variant-substrate pair were determined using standardized reaction conditions (identical enzyme and substrate concentration, incubation time, cofactor regeneration system) (Table 18). TTN values were used to assess performance because TTN is a cumulative measure of both catalytic and coupling efficiency and because mutants were selected based on improvement in this property. To facilitate comparison among the variants, TTNs were normalized to the highest value in the series (MTN=Maximal Turnover Number) and plotted for the increasing-sized substrates (FIG. 38). A gradual shift of the enzyme's substrate preference during laboratory evolution is evident from these profiles. The marginal activity of wild-type BM3 on these substrates (MTN=150) is restricted to the long-chain alkanes, where it is a promiscuous function of BM3's high C12-C20 fatty acid hydroxylase activity. In the first evolutionary intermediates, substrate preference centers on medium-chain alkanes […], reflecting their selection for activity on octane. In 35E11, selected for activity on propane, preference still centers on C6-C8 alkanes but now extends towards the shorter ones, including propane. Propane activity becomes prevalent with the transition from variant ETS8 to 19A12. […]

[3] = Reactions on alkanes, total turnovers (Table 18): nonane; conditions: nonane (9 C atoms); for % rel. act.: TTN normalized to the highest value of the variant's series; for TTN: total turnovers, standardized reaction conditions
Procedure: as §1, §2, §3

[4] = Reactions on alkanes, total turnovers (Table 18): octane; conditions: octane (8 C atoms); for % rel. act.: TTN normalized to the highest value of the variant's series; for TTN: total turnovers, standardized reaction conditions
Procedure: as §1, §2, §3

[5] = Reactions on alkanes, total turnovers (Table 18): pentane; conditions: pentane (5 C atoms); for % rel. act.: TTN normalized to the highest value of the variant's series; for TTN: total turnovers, standardized reaction conditions
Procedure: as §1, §2, §3

[6] = Reactions on alkanes, total turnovers (Table 18): decane; conditions: decane (10 C atoms); for % rel. act.: TTN normalized to the highest value of the variant's series; for TTN: total turnovers, standardized reaction conditions
Procedure: as §1, §2, §3

[7] = Reactions on alkanes, total turnovers (Table 18): ethane; conditions: ethane (2 C atoms); for % rel. act.: TTN normalized to the highest value of the variant's series; for TTN: total turnovers, standardized reaction conditions
Procedure: as §1, §2, §3

Molecule | total turnover number on CM ([1]; compared with the other mutants of the study) | % rel. act. [2] [%] | TTN [2] | % rel. act. [3] [%] | TTN [3] | % rel. act. [4] [%] | TTN [4] | % rel. act. [5] [%] | TTN [5] | % rel. act. [6] [%] | TTN [6] | % rel. act. [7] [%] | TTN [7] | colorimetric response (Purpald) ([1]; chloromethane, cofactor regeneration system)
Wild-type BM-3: wild-type cytochrome P450 BM-3 from Bacillus megaterium, SEQ ID NO:1 (protein, listed as Bacillus megaterium) TIKEMPQPKTFGELKNLPLLNTDKPVQALMKIADELGEIFKFEAPGRVTRYLSSQRLIKEACDESRFDKNLSQALKFVRDFAGDGLFTSWTHEKNWKKAHNILLPSFSQQAMKGYHAMMVDIAVQLVQKWERLNADEHIEVPEDMTRLTLDTIGLCGFNYRFNSFYRDQPHPFITSMVRALDEAMNKLQRANPDDPAYDENKRQFQEDIKVMNDLVDKIIADRKASGEQSDDLLTHMLNGKDPETGEPLDDENIRYQIITFLIAGHETTSGLLSFALYFLVKNPHVLQKAAEEAARVLVDPVPSYKQVKQLKYVGMVLNEALRLWPTAPAFSLYAKEDTVLGGEYPLEKGDELMVLIPQLHRDKTIWGDDVEEFRPERFENPSAIPQHAFKPFGNGQRACIGQQFALHEATLVLGMMLKHFDFEDHTNYELDIKETLTLKPEGFVVKAKSKKIPLGGIPSPSTEQSAKKVRKKAENAHNTPLLVLYGSNMGTAEGTARDLADIAMSKGFAPQVATLDSHAGNLPREGAVLIVTASYNGHPPDNAKQFVDWLDQASADEVKGVRYSVFGCGDKNWATTYQKVPAFIDETLAAKGAENIADRGEADASDDFEGTYEEWREHMWSDVAAYFNLDIENSEDNKSTLSLQFVDSAADMPLAKMHGAFSTNVVASKELQQPGSARSTRHLEIELPKEASYQEGDHLGVIPRNYEGIVNRVTARFGLDASQQIRLEAEEEKLAHLPLAKTVSVEELLQYVELQDPVTRTQLRAMAAKTVCPPHKVELEALLEKQAYKEQVLAKRLTMLELLEKYPACEMKFSEFIALLPSIRPRYYSISSSPRVDEKQASITVSVVSGEAWSGYGEYKGIASNYLAELQEGDTITCFISTPQSEFTLPKDPETPLIMVGPGTGVAPFRGFVQARKQLKEQGQSLGEAHLYFGCRSPHEDYLYQEELENAQSEGIITLHTAFSRMPNQPKTYVQHVMEQDGKKLIELLDQGAHFYICGDGSQMAPAVEATLMKSYADVHQVSEADARLWLQQLEEKGRYAKDVWAG | no detectable activity | 12.5 | 20 ± 5 | 68.8 | 110 ± 10 | 18.8 | 30 ± 42 | 0.0 | 0 | 100.0 | 160 ± 95 | 0.0 | 0 | –
35-E11: P450 BM-3 variant, SEQ ID NO:7: 53-5H substitutions plus E464G and I710T (protein, mutant P450 35-E11 protein sequence) TIKEMPQPKTFGELKNLPLLNTDKPVQALMKIADELGEIFKFEAPGCVTRYLSSQRLIKEACDESRFDKNLSQALKFFRDFSGDGLFTSWTHEINWKKAHNILLPSFSQQAMKGYHAMMVDIAVQLVQKWERLNADEHIEVSEDMTRLTLDTIGLCGFNYRFNSFYRDQPHPFIISMVRALDEVMNKLQRANPDDPAYDENKRQCQEDIKVMNDLVDKIIADRKARGEQSDDLLTQMLNGKDPETGEPLDDGNISYQIITFLIAGHETTSGLLSFALYFLVKNPHVLQKVVEEAARVLVDPVPSYKQVKQLKYVGMVLNEALRLWPTFPAFSLYAKEDTVLGGEYPLEKGDEVMVLIPQLHRDKTIWGDDVEEFRPERFENPSAIPQHAFKPFGNGQRACIGQQFALHEATLVLGMMLKHFDFEDHTNYELDIKETLTLKPEGFVVKAKSKKIPLGGIPSPSTGQSAKKVRKKAENAHNTPLLVLYGSNMGTAEGTARDLADIAMSKGFAPQVATLDSHAGNLPREGAVLIVTASYNGHPPDNAKQFVDWLDQASADEVKGVRYSVFGCGDKNWATTYQKVPAFIDETLAAKGAENIADRGEADASDDFEGTYEEWREHMWSDVAAYFNLDIENSEDNKSTLSLQFVDSAADMPLAKMHGAFSTNVVASKELQQPGSARSTRHLEIELPKEASYQEGDHLGVIPRNYEGTVNRVTARFGLDASQQIRLEAEEEKLAHLPLAKTVSVEELLQYVELQDPVTRTQLRAMAAKTVCPPHKVELEALLEKQAYKEQVLAKRLTMLELLEKYPACEMKFSEFIALLPSIRPRYYSISSSPRVDEKQASITVSVVSGEAWSGYGEYKGIASNYLAELQEGDTITCFISTPQSEFTLPKDPETPLIMVGPGTGVAPFRGFVQARKQLKEQGQSLGEAHLYFGCRSPHEDYLYQEELENAQSEGIITLHTAFSRMPNQPKTYVQHVMEQDGKKLIELLDQGAHFYICGDGSQMAPAVEATLMKSYADVHQVSEADARLWLQQLEEKGRYAKDVWAG | – | 81.4 | 5170 ± 148 | 52.6 | 3350 ± 133 | 93.7 | 5950 ± 323 | 75.6 | 4800 ± 174 | 13.5 | 860 ± 223 | 3.5 | 220 ± 30 | specific colorimetric response
